# Assay results taken from article PMC3317499, “Structural Insights into TIR Domain Specificity of the Bridging Adaptor Mal in TLR4 Signaling” (PLoS ONE, 2012).
# T1: GST-TLR4-TIR (TIR domain of human TLR4, residues 670-839, GST fusion) (human, UniProt O00206 670-839)
# T1 construct: Toll-like receptor 4 (TLR4), human, TIR domain residues 670-839; pGEX-6P-1 is a bacterial vector; source: E. coli (pGEX-6P-1), purified (glutathione Sepharose 4B, desalting)
# T1 sequence (looked up): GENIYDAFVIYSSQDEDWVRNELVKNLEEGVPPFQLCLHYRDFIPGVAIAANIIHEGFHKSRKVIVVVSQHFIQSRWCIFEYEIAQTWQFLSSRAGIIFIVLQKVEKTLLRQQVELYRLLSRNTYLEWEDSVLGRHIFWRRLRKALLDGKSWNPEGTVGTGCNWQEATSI
# Tests used:
# [1] = biological target: T1, GST-TLR4-TIR (TIR domain of human TLR4, …); experiment: pull-down; GST fusion protein and Myc-Mal-TIR mixed with glutathione Sepharose 4B beads, 4°C, 3 hours; washed four times with 20 mM potassium phosphate pH 6.4, 50 mM KCl, 0.1 mM EDTA, 10 mM DTT, 0.5 mM PMSF, 0.5% Triton X-100; SDS-PAGE and anti-Myc immunoblot; conditions: both partners purified
# [2] = biological target: T2, GST-Mal-TIR (TIR domain of human Mal, residues 79-221, GST fusion) (human, UniProt P58753 79-221); experiment: as above; conditions: both partners purified
# T2 construct: MyD88 adaptor-like protein (Mal, TIRAP), human, UniProtKB P58753, TIR domain residues 79-221; pGEX-6P-1 is a bacterial vector; also called wild type Mal-TIR purified as a GST fusion protein; source: E. coli (pGEX-6P-1), purified (glutathione Sepharose 4B, desalting)
# [3] = biological target: T3, GST-MyD88-TIR (TIR domain of human MyD88, residues 148-296, GST fusion) (human, UniProt Q99836 148-296); experiment: as above; conditions: both partners purified
# T3 construct: Myeloid differentiation factor 88 (MyD88), human, TIR domain residues 148-296; pGEX-6P-1 is a bacterial vector; source: E. coli (pGEX-6P-1), purified (glutathione Sepharose 4B, desalting)
# [4] = biological target: the molecule itself; experiment: crystal structure; Mal-TIR 79-221, space group P4(3)2(1)2, one molecule per asymmetric unit; dimers by crystallographic packing; 100 mM CHES pH 9.5, 150-300 mM NaCl, 10-20% glycerol, 10 mM DTT; 2.4 Å
# T3 sequence (Q99836 148-296): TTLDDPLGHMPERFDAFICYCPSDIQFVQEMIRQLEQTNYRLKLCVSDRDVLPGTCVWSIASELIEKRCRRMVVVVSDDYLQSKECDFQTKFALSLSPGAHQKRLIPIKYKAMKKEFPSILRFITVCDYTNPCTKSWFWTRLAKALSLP
binding result [1],binding result [2],binding result [3],Binder,binding result [4]
binds,binds,binds,"Myc-Mal-TIR wild type (TIR domain of human MyD88 adaptor-like protein, residues 79-221, double-tagged with His6 and Myc) (domain or fragment, UniProt P58753 79-221, looked up, MyD88 adaptor-like protein (Mal, TIRAP), human, UniProtKB P58753, TIR domain residues 79-221; it replaced the S-tag, thioredoxin and the thrombin-cleavable segment of pET32a; also called wild-type Mal-TIR; TIRAP TIR domain; source: E. coli, purified (Ni-NTA, desalting)) SSRWSKDYDVCVCHSEEDLVAAQDLVSYLEGSTASLRCFLQLRDATPGGAIVSELCQALSSSHCRVLLITPGFLQDPWCKYQMLQALTEAPGAEGCTIPLLSGLSRAAYPPELRFMYYVDGRGPDGGFRQVKEAVMRYLQTLS",
,,,"Mal-TIR (residues 79-221 of human Mal), crystallised form (domain or fragment, UniProt P58753 79-221, looked up, MyD88 adaptor-like protein (Mal, TIRAP), human, UniProtKB P58753, residues 79-221; The structure has disulfide bonds C89-C134 and C142-C174 and a DTT linking Cys91 and Cys157; A selenomethionine form was used for phasing; also called wild-type Mal-TIR; TIR domain of the human Mal molecule; source: E. coli BL21 (DE3) codon plus, purified (Ni-NTA, PreScission digestion, anion exchange)) SSRWSKDYDVCVCHSEEDLVAAQDLVSYLEGSTASLRCFLQLRDATPGGAIVSELCQALSSSHCRVLLITPGFLQDPWCKYQMLQALTEAPGAEGCTIPLLSGLSRAAYPPELRFMYYVDGRGPDGGFRQVKEAVMRYLQTLS",binds
,,binds,"Myc-Mal-TIR L165A (domain or fragment, human, UniProt P58753 79-221, looked up, Mal (TIRAP), human, UniProtKB P58753, TIR domain residues 79-221; source: E. coli, purified (Ni-NTA, desalting)) SSRWSKDYDVCVCHSEEDLVAAQDLVSYLEGSTASLRCFLQLRDATPGGAIVSELCQALSSSHCRVLLITPGFLQDPWCKYQMLQAATEAPGAEGCTIPLLSGLSRAAYPPELRFMYYVDGRGPDGGFRQVKEAVMRYLQTLS",
,binds,,"Myc-Mal-TIR R192A (domain or fragment, human, UniProt P58753 79-221, looked up, Mal (TIRAP), human, UniProtKB P58753, TIR domain residues 79-221; source: E. coli, purified (Ni-NTA, desalting)) SSRWSKDYDVCVCHSEEDLVAAQDLVSYLEGSTASLRCFLQLRDATPGGAIVSELCQALSSSHCRVLLITPGFLQDPWCKYQMLQALTEAPGAEGCTIPLLSGLSRAAYPPELAFMYYVDGRGPDGGFRQVKEAVMRYLQTLS",
,,binds,"Myc-Mal-TIR D96N (domain or fragment, human, UniProt P58753 79-221, looked up, Mal (TIRAP), human, UniProtKB P58753, TIR domain residues 79-221, natural variant D96N; source: E. coli, purified (Ni-NTA, desalting)) SSRWSKDYDVCVCHSEENLVAAQDLVSYLEGSTASLRCFLQLRDATPGGAIVSELCQALSSSHCRVLLITPGFLQDPWCKYQMLQALTEAPGAEGCTIPLLSGLSRAAYPPELRFMYYVDGRGPDGGFRQVKEAVMRYLQTLS",
,binds,,"Myc-Mal-TIR D87A (domain or fragment, human, UniProt P58753 79-221, looked up, Mal (TIRAP), human, UniProtKB P58753, TIR domain residues 79-221; source: E. coli, purified (Ni-NTA, desalting)) SSRWSKDYAVCVCHSEEDLVAAQDLVSYLEGSTASLRCFLQLRDATPGGAIVSELCQALSSSHCRVLLITPGFLQDPWCKYQMLQALTEAPGAEGCTIPLLSGLSRAAYPPELRFMYYVDGRGPDGGFRQVKEAVMRYLQTLS",
,,binds,"Myc-Mal-TIR F117A (domain or fragment, human, UniProt P58753 79-221, looked up, Mal (TIRAP), human, UniProtKB P58753, TIR domain residues 79-221; source: E. coli, purified (Ni-NTA, desalting)) SSRWSKDYDVCVCHSEEDLVAAQDLVSYLEGSTASLRCALQLRDATPGGAIVSELCQALSSSHCRVLLITPGFLQDPWCKYQMLQALTEAPGAEGCTIPLLSGLSRAAYPPELRFMYYVDGRGPDGGFRQVKEAVMRYLQTLS",
binds,,binds,"Myc-Mal-TIR D96A (domain or fragment, human, UniProt P58753 79-221, looked up, Mal (TIRAP), human, UniProtKB P58753, TIR domain residues 79-221; source: E. coli, purified (Ni-NTA, desalting)) SSRWSKDYDVCVCHSEEALVAAQDLVSYLEGSTASLRCFLQLRDATPGGAIVSELCQALSSSHCRVLLITPGFLQDPWCKYQMLQALTEAPGAEGCTIPLLSGLSRAAYPPELRFMYYVDGRGPDGGFRQVKEAVMRYLQTLS",
binds,,binds,"Myc-Mal-TIR S180L (domain or fragment, human, UniProt P58753 79-221, looked up, Mal (TIRAP), human, UniProtKB P58753, TIR domain residues 79-221, natural variant S180L; also called Mal S180L; source: E. coli, purified (Ni-NTA, desalting)) SSRWSKDYDVCVCHSEEDLVAAQDLVSYLEGSTASLRCFLQLRDATPGGAIVSELCQALSSSHCRVLLITPGFLQDPWCKYQMLQALTEAPGAEGCTIPLLLGLSRAAYPPELRFMYYVDGRGPDGGFRQVKEAVMRYLQTLS",
,,binds,"Myc-Mal-TIR E108A (domain or fragment, human, UniProt P58753 79-221, looked up, Mal (TIRAP), human, UniProtKB P58753, TIR domain residues 79-221; source: E. coli, purified (Ni-NTA, desalting)) SSRWSKDYDVCVCHSEEDLVAAQDLVSYLAGSTASLRCFLQLRDATPGGAIVSELCQALSSSHCRVLLITPGFLQDPWCKYQMLQALTEAPGAEGCTIPLLSGLSRAAYPPELRFMYYVDGRGPDGGFRQVKEAVMRYLQTLS",
